Reference: patent US7273847B2, “Peptides with antioxidant and antimicrobial properties” (priority 2000, dated 2007)

Key:
[1] = test system: E. coli; assay: Light scattering by growing bacteria in broth (O.D. 400 nm); details: for Blocking of attenuation of light scattering by J5 LPS vesicles: 300 μg/ml J5 LPS vesicles, 100 μg/ml collectin
[2] = test system: RAW 264.7 macrophages; assay: Protection from t-BOOH induced cell death (Trypan Blue exclusion); assay type: cell-based, murine; details: 40 μM t-BOOH, 24 hrs; for Half maximal concentration for protection from t-BOOH-induced death: Trypan Blue
Method: A murine macrophage cell line (RAW 264.7) was adhered to 24-well plates (2×10^4 cells/well) in Ham's F12 media containing 10% FBS overnight at 37° C. in a 10% CO2 atmosphere. After washing, the cells were exposed to 40 μM tert-butyl hydroperoxide (t-BOOH) in serum free Ham's F12 for 24 hrs in the presence of various concentrations of the surfactant proteins. Viability was assessed for exclusion of the vital dye Trypan Blue.
Exposure of cultured mammalian cells to tert-butylhydroperoxide (t-BOOH) promotes a variety of toxic events including depletion of glutathione, mitochondrial dysfunction and peroxidation of membrane lipids, as described in Sestili et al., FEBS Lett. 457(1):139-143 (1999). To determine if SP-A and SP-D protect cells from oxidative stress, RAW 264.7 murine macrophages were exposed to 40 μM t-BOOH for 24 hrs in the presence of SP-A or SP-D at concentrations from 0.01 to 50 μg/ml. Cell death was assessed by staining cells with the vital dye Trypan Blue. As depicted by FIG. 5, RAW 264.7 macrophages were incubated with various concentrations of SP-A or SP-D and 40 μM t-BOOH. Cell viability was assessed by counting the percentage of cells that excluded the vital dye Trypan Blue. Data are mean±S.E.M., n=3 for collectins except 50 μg/ml point where n=2.

[3] = test system: GBS; assay: Radial diffusion growth inhibition in agar; assay type: cell-based; details: radial diffusion (not shown)
Method: (§1) A radial diffusion method was therefore used to examine the effect of the collectins and their individual structural domains on the growth of E. coli that were immobilized in agar (FIGS. 8,9). Wells were bored into plates containing agar impregnated with 2×10^6 E. coli/ml or GBS. Proteins to be tested were introduced into the wells and the plates were incubated overnight at 37° C.

[4] = test system: E. coli K12; assay: Radial diffusion growth inhibition in agar; assay type: cell-based; details: radial diffusion, overnight 37° C.
Method: as §1

[5] = test system: LDL; assay: TBARS assay of copper-induced oxidation of LDL; assay type: biochemical, human; details: for I.C.50 (half-maximal point) for inhibition of copper-induced oxidation of LDL / Concentration of complete inhibition of LDL oxidation (to basal levels) / IC50: 10 μM Cu2+, TBARS; for I.C.50 (half-maximal point) for inhibition of copper-induced oxidation of LDL: 4 hours; for IC50: read-out: I.C.50 for inhibition of copper-induced oxidation of LDL; for TBARS LDL Malondialdehyde: mean ± S.E.M., n=3; for Concentration required to provide the same level of antioxidant protection: LDL, level of 500 μg/ml of rat serum
Method: Substrates for lipid oxidation included mixtures of natural and synthetic glycerophospholipids that are found in pulmonary surfactant and human LDL. The surfactant lipid mix, composed of egg phosphatidylcholine, dipalmitoylphosphatidylcholine, cholesterol and 1-oleoyl-2-linoleoyl-sn-glycero-3-phosphocholine (1:1:0.15:0.15, w/w, respectively) (Avanti Polar Lipids) in chloroform, was dried to a film under nitrogen. Following hydration in PBS or 0.15 M NaCl for 30 min, multilamellar vesicles were generated by vigorous vortexing for 5 minutes. LDL were isolated from the plasma of normal blood donors by density gradient ultracentrifugation (density=1.019-1.063 g/ml) as previously described in Qin et al., Am. J. Physiol. 274(5 Pt 2): H1836-1840 (1998), and stored in saline-EDTA. Just prior to use, EDTA was removed by dialysis against PBS, and the concentration of LDL was determined by Lowry assay (in milligrams of LDL-associated protein).
Stock solutions of 10 mM CuSO4 were freshly prepared daily. Reaction mixtures containing 1 mg/mi surfactant lipids or 150 μg/ml LDL were incubated with 10 μM CuSO4 for 24 hours or 4 hours, respectively, in the presence of putative oxidation inhibitors or controls at 37° C. in a shaking water bath in accordance with the method of Gelvan et al., Biochim. Biophys. Acta 1035(3):353-360 (1990). Control reactions which included LDL only, 10 μM CuSO4 or protein controls of bovine serum albumin (BSA), rat IgG, recombinant MBP, rat serum and human complement C1q were performed concurrently with experimental samples. Thiobarbituric acid-reactive substances (TBARS) were measured using a method adapted from Gelvan et al., Biochim. Biophys. Acta 1035(3):353-360 (1990). Samples and 0-10 μM […] standards were developed by addition of a solution composed of 0.375% thiobarbituric acid, 15% trichloroacetic acid, and 0.25N HCl at a volume ratio of 1:2, sample: developer. Following incubation at 95° C. for 30 minutes and centrifugation at 14,000 rpm for 15 minutes, an aliquot was read at 540 nm in a spectrophotometer. For continuous assessment of lipid oxidation, the accumulation of conjugated dienes during LDL oxidation was monitored spectrophotometrically in accordance with the method of Esterbauer et al., Free Rad. Med. Biol. 13, 341-390 (1992). Mixtures of 150 μg/ml LDL, 10 μM copper, and various amounts of surfactant proteins or control proteins were placed in quartz cuvettes and allowed to oxidize at room temperature over 335 minutes. Conjugated diene formation was assessed by measuring absorbance at 234 nm in a spectrophotometer.
The data are set forth graphically in FIG. 3. Various concentrations of recombinant wild type SP-A (circle), mutant SP-A containing a deletion of the collagen-like domain (square) and mutant SP-A containing only the neck and C-lectin domain (CLD) (triangle) were incubated with LDL in the presence of 10 μM Cu^2+, and lipid peroxidation was quantified by TBARS assay. Data are means, n=3-4.

[6] = test system: model surfactant lipids; assay: AIBN-initiated lipid peroxidation of model surfactant lipids; assay type: biochemical; details: 3 hours incubation, with or without low concentrations of copper; preliminary data

Molecule	Blocking of attenuation of light scattering by J5 LPS vesicles [1]	Concentration at which protection reached a plateau [2]	Half maximal concentration for protection from t-BOOH-induced death [2] [µg/mL]	Growth of GBS [3]	Growth of E. coli K12 [4]	I.C.50 (half-maximal point) for inhibition of copper-induced oxidation of LDL [5] [µg/mL]	Concentration of complete inhibition of LDL oxidation (to basal levels) [5] [µg/mL]	IC50 [5] [nM]	TBARS LDL Malondialdehyde ([5]; LDL + Cu2+ + 10 μg/ml protein) [µM]	Concentration required to provide the same level of antioxidant protection [5] [µg/mL]	Inhibition of AIBN-initiated LPO [6]	Time dependent increase in light scattering ([1]; 100 μg/ml)	TBARS LDL Malondialdehyde ([5]; LDL + Cu2+ + 1 μg/ml protein) [µM]
SP-A: Native surfactant protein A isolated from the alveolar wash of silica-pretreated rats	completely	approximately 1 μg/ml	0.52	not GBS	inhibited the growth	4.75	10	7.9	0.0 ± 0.0	2.5	did not inhibit LPO, unless copper was added at low concentrations		
SP-D: Native surfactant protein D from rat alveolar wash; mouse SP-D was used interchangeably with rat SP-D (protein) AEMKSLSQRSVPNTCTLVMCSPTENGLPGRDGRDGREGPRGEKGDPGLPGPMGLSGLQGPTGPVGPKGENGSAGEPGPKGERGLSGPPGLPGIPGPAGKEGPSGKQGNIGPQGKPGPKGEAGPKGEVGAPGMQGSTGAKGSTGPKGERGAPGVQGAPGNAGAAGPAGPAGPQGAPGSRGPPGLKGDRGVPGDRGIKGESGLPDSAALRQQMEALKGKLQRLEVAFSHYQKAALFPDGRSVGDKIFRTADSEKPFEDAQEMCKQAGGQLASPRSATENAAIQQLITAHNKAAFLSMTDVGTEGKFTYPTGEPLVYSNWAPGEPNNNGGAENCVEIFTNGQWNDKACGEQRLVICEF	partially	approximately 1 μg/ml	0.56	not GBS	inhibited the growth	0.14	1	0.3		0.05	did not inhibit LPO, unless copper was added at low concentrations	inhibited	0.0 ± 0.0
